Earlier results on one substance are cited in publication PMC4245495.

The target in the data set is Uroplakin Ia (UniProt O00322).
UniProt O00322, sequence (O00322 whole entry): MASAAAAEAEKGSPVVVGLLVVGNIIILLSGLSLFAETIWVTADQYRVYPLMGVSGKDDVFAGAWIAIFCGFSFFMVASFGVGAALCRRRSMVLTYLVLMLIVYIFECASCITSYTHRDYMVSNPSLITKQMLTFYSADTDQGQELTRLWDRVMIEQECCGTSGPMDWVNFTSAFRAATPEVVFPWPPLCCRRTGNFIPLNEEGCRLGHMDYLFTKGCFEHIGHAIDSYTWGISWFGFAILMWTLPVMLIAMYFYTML

Consider FimH (from UniProt P08191), for which the Kd (usually the constant that tells how readily two partners part at equilibrium) is 100 nM.
